In the DeepSol protein solubility set:

Assay: soluble on expression in E. coli; label from the status in PepcDB or PDB records
For “MATFYEVIVRVPFDVEEHLPGISDSFVDWVTGQIWELPPESDLNLTLVEQPQLTVADRIRRVFLYEWNKFSKQESKFFVQFEKGSEYFHLHTLVETSGISSMVLGRYVSQIRAQLVKVVFQGIEPQINDWVAITKVKKGGANKVVDSGYIPAYLLPKVQPELQWAWTNLDEYKLAALNLEERKRLVAQFLAESSQRS”, the “soluble on expression in E. coli” value was “soluble”. For “MATLEITDIALVQPSHQPLSNDQTLSLSHLDNDNNLHVSFRYLRVYSSSSSTVAGESPSAVVSASLATALVHYYPLAGSLRRSASDNRFELLCSAGQSVPLVNATVNCTLESVGYLDGPDPGFVERLVPDPTREEGMVNPCILQVTMFQCGGWVLGASIHHAICDGLGASLFFNAMAELARGATKISIEPVWDRERLLGPREKPWVGAPVRDFLSLDKDFDPYGQAIGDVKRDCFFVTDDSLDQLKAQLLEKSGLNFTTFEALGAYIWRAKVRAAKTEEKENVKFVYSINIRRLMNPPLPKGYWGNGCVPMYAQIKAGELIEQPIWKTAELIKQSKSNTSDEYVRSFIDFQELHHKDGINAGTGVTGFTDWRYLGHSTIDFGWGGPVTVLPLSNKLLGSMEPCFFLPYSTDAAAGSKKDSGFKVLVNLRESAMPEFKEAMDKFHKGEFALS”, the “soluble on expression in E. coli” value was “soluble”. For “MATPFDGSNDATESRLLQLGRERLDPILAQQSDALQTQLSNQGIKLGSAAYDRAMTQQALHANDATDQLILQGHGQAFAEGQAIRNQPINEITALLSGSQVSNPQAAAYTPSTIPTTDNAGIIANNYQQKMDAYNAQMSQASSLAGGLFGLGGKLISLSDDDAKKDKERLADITPEMGLWKFHYKGEPADAPMRLGLMASEVEKVRPDAVSRRPDGYRQVDYGKALSLGALEHHHHHH”, the “soluble on expression in E. coli” value was “not soluble”. For “MATPYVPVPMPIGNSASSFTNNRNQRSSSFGSVSTSSTSSKGQLEDSAVGSLKQTNVQDQMDSASSMCGSPLIRTKFTGTDSSIEYSARPREAEEQHPEAVNWEDRPSTPTILGYEVMEERAKFTVYKILVKKSPEESWVVFRRYTDFSRLNDKLKEMFPGFRLALPPKRWFKDNYNAEFLEDRQLGLQAFLQNLVAHKDIANCLAVREFLCLDDPPGPFDSLEESRAFCETLEETNYHLQRELLEKQKEVESLKKLLGEKQLHIDALETRIRTLSLEPGASLYVSRAEGGQILRVEPSVLQVNRDVLDEESRADHKPHFNSREAGSVIAGIEVAQLAYNAEDD”, the “soluble on expression in E. coli” value was “soluble”. For “MATRLNISFDSDLLESISSEFDLRAPNKEALRQLVFTLDGDYEPSIMQVLNLATGVGKTYLMAAFVEYLRRQGVGNVVIVTPGKTVQAKTVQNFTPGSPRYITGSVVPPEVVTPQDYSAWVARQNGAAQLSFGHEVPILAFIFNIQQLIAPKSTEGDTHGNTQDAMRRKPRRFDENAGVLFDYLKGLDDLVVIADESHLYGSSAIAFNAALKELDPAATIGLTASVDKKSDHVIYHYPLFRAIQDKYVKAPVLAFRKTGYGTDEASEEQQLRDALQLRSIKQVYYDSFAASENRKHVNAVVFVVCSDVDHATQVTELLRSPEYLGNDDAVLQVDSKHEDELTQRRLNELDRPHSPVLAVVSVNKLKEGWDVRNIAVVVTLRAMASEVLTQQTMGRGLRLPFGHYTGVWQIDQLDIIAHQSFTELLNAENVLHQFGLEEAVADLDKAQVEAAILKAAETATSPRLGTSLTDTGVIQPGDVAAHEAGVWLIGDSSNSDDLQAGIVPVGGENSTRTPSVGVREITDPAPEGGTGWELVSIERNPAFADVTYQFPVTTMTVQQPSIDLSEIGDDTIEQAARRVTSAGDVLLRKEIIAVLGKKLRAEDRESAEVDSVHVDEDDAKNALVKLVLNMSLVPKTEQTARYVAAFLVPKFMQSVMFSGWTVKSLDSARTELLKLIQNYTVETLRSTREVPSIHPKSMPSNGYTLPLGQKVHDQIETREQFVRSQVYGGWFKSLFAEESFDSFTGEYQLARLLNTSPGIVWWHRLHPQDQAFVFYNAKDRYFPDFVAMDVNGVHWIIEGKSERGRDDAQVQAKRKAAEALVRRLVAEDAYADQLWGYLIAYEQDIARADSWEDLKAFASPVNNAL”, the “soluble on expression in E. coli” value was “not soluble”. For “MATSAMFILDLKGKTIISRNYRGDIDMTAIDKFIHLLMEKEEEGSAAPVLTYQDTNFVFIKHTNIYLVSACRSNVNVTMILSFLYKCVEVFSEYFKDVEEESVRDNFVVIYELLDEMMDFGFPQTTESRILQEYITQEGQKLISAPRPPMAVTNAVSWRSEGIKYRKNEVFLDVIESVNMLASANGTVLQSEIVGSVKMRVYLTGMPELRLGLNDKVLFEGSGRGKSKSVELEDVKFHQCVRLSRFDTDRTISFIPPDGAFELMSYRLTTVVKPLIWIETSIERHSHSRVSFIIKAKSQFKRRSTANNVEIIIPVPSDADSPKFKTSIGSVKYTPEQSAFVWTIKNFPGGKEYLLTAHLSLPSVMSEESEGRPPIKVKFEIPYFTTSGIQVRYLKIIEKSGYQALPWVRYITQNGEYEMRMK”, the “soluble on expression in E. coli” value was “not soluble”. With “MATSLDRDKEAVLRALRPYLEGTGTRLFLFGSFARGEGRQASDLDLALLSPVPLKDLMPLLREALEEAPVVRRVDLVDLAEAEPAFRERVLREGVLWAEF” the “soluble on expression in E. coli” value was “soluble”. In the case of “MATTKPYRVLLYYMYTTIENPEEFAAEHLEFCNSLELKGRILVAKEGINGTCSGTVEQTEKYMEAMNNDPRFDGIVFKIDEADGHAFKKMHVRPRPELVTLRLEDDINPHEITGKYLEPKDFYEAMKQEDTVIIDARNDYEFDLGHFKGAIKPDIESFRELPDWIRENKEVLEGKKILTYCTGGIRCEKFSGWLVREGYEDVSQLHGGIVTYGKDPEVQGELWDGQCYVFDERIAVPVNQKEHVIVGKDHFTGEPCERYVNCANPECNKKILCSEENEAKYLRACSHECRVSPRNRYVIQHELTEEQVAAALEQIEAGKLEHHHHHH”, the “soluble on expression in E. coli” value is reported as “not soluble”. With “MATVTTHASASIFRPCTSKPRFLTGSSGRLNRDLSFTSIGSSAKTSSFKVEAKKGEWLPGLASPDYLTGSLAGDNGFDPLGLAEDPENLKWFVQAELVNGRWAMLGVAGMLLPEVFTKIGIINVPEWYDAGKEQYFASSSTLFVIEFILFHYVEIRRWQDIKNPGSVNQDPIFKQYSLPKGEVGYPGGIFNPLNFAPTQEAKEKELANGRLAMLAFLGFVVQHNVTGKGPFENLLQHLSDPWHNTIVQTFN” the “soluble on expression in E. coli” value was “soluble”. With “MAVARWLRDHSGPDDVVATNAHCRFAVSDSCDNRHFWISGYTERRVLVEGWGYTARTLASLTDVDREPMGAVPFWDAELLAANDAVFTAPTARAVDLLARRYGVRWLMVDRRRPLTAPDLGQFARLRYARGSFAVYSTLS” the “soluble on expression in E. coli” value was “not soluble”. For “MAVKFFGQFLVEKGVVSRETLLQAIELQESVNLSFGATSLAMGILTEADIERIHNAQRIEDLRFGDMAVKLGLLTSEQMMQVLTRQKNTHLYIGEALVKVGSFQADELPKYLEEFKADQAQYATDTVVIPTGVSEPKIWEMVADLSYKMLTRVALLVFRPEPCFVADRVPAMDVYATMDFTGDISGRYFMGVTAATQKKIAKAILKEPNVDNEPKEILDDTVMEFVNVALGNIAAKAAQSGKSMEIAPPEIIEAPDGIQVPDGHKALCFPVCLSDGDRIELAVFIQQLEHHHHHH”, the “soluble on expression in E. coli” value was “soluble”. With “MAVNLLKKNSLALVASLLLAGHVQATELLNSSYDVSRELFAALNPPFEQQWAKDNGGDKLTIKQSHAGSSKQALAILQGLKADVVTYNQVTDVQILHDKGKLIPADWQSRLPNNSSPFYSTMGFLVRKGNPKNIHDWNDLVRSDVKLIFPNPKTSGNARYTYLAAWGAADKADGGDKGKTEQFMTQFLKNVEVFDTGGRGATTTFAERGLGDVLISFESEVNNIRKQYEAQGFEVVIPKTNILAEFPVAWVDKNVQANGTEKAAKAYLNWLYSPQAQTIITDYYYRVNNPEVMDKLKDKFPQTELFRVEDKFGSWPEVMKTHFTSGGELDKLLAAGRN” the “soluble on expression in E. coli” value was “soluble”. In the case of “MAVPPTYVDLGKSARDIFTKGYGFGLIKLDLKTRSENGLEFKSSGSANTETSKVAGTLETKYKWAEHGLTFTEKWNTDNTLGTEITLEDQLTKGLKLTFDSSFSPNTGKKSGKIKSSYQREHINLGCDVDYDINGTAVHGALVLGLDGWLAGYQMTFEAGRNRITQSNFAVGYKTDEFQLHTNVNDGTEFGGSIYQKVNDNLETAVNLAWTAGNSNTRFGIAAKYQIDSDAAFSAKVNNSSLVGLGYTQTLKPGIKLTLSALLDGKNINAGGHKMGLGLEFEA”, the “soluble on expression in E. coli” value is reported as “soluble”. For “MAVPVQFRKPPMGGIGKKVAYYPGCSLEGAARAYDVSTRIVAKELGLELDYLEDYNCCGAMETKNVSFWGTMLLNARNMSLARRQGHNVIVAPCNGCSFSLQRVEYFLETDKNTLDRINQLLQEAGEKPLDNIPHTYHILEWFYHEAGPEKVKEKTKKPLRGLKVASYYGCLYTRPHFYARTYSHLAPEDEEQARPRKRETADDDEHPYYMEALLEAAGATSVEIEPMHTQCCGGPHSLSDEEVSEKFVMMILQTAKRNGADIIATECPLCHASLEMYRHRLMLKGVPDVDVPAAYFTQLLGLAFGYSVNDVKLKDNLSDPIPVLKRLGLA”, the “soluble on expression in E. coli” value was “not soluble”. With “MAVTISGVRKHSPAYRHGIQAGERLLTLNGNEIMDVLDYRFYQLNTALVLELENNRGERRTVSLKKPEYEEIGLEFETYLMDRQHSCKNKCVFCFIDQLPKGLRKSLYFKDDDSRLSFLFGNYVTLTNLTEHEISRIIKMHISPMNISVHTTNPELRVKMMKNPRAGEALSIIRRFAQAGIKINCQIVLCPGYNDGEELKRTLSDLETMCPQVQAVAVVPVGITRYRQNLPEMRSFTRETAGEAIDLIESFGEKCLQKYGTRVAYPGDEFYLKAERPLPPAGFYEDFSMLENGVGLLPLLMDEFYSALEEAGETGGRKREITIATGMAPREYIRGFLDDAIKKFPHISGRVTPIVNRFFGETITVSGLVTGTDLIEQLSSVDLGDELLIPACMLRREGDLFLDDVSLQDVEAALKVPVRPVPNDGYAFLDAILGSESLEHHHHHH” the “soluble on expression in E. coli” value was “not soluble”. For “MAVTQSPRNKVAVTGGKVTLSCNQTNNHNNMYWYRQDTGHGLRLIHYSYGAGSTEKGDIPDGYKASRPSQENFSLILELATPSQTSVYFCASGDLGQTNERLFFGHGTKLSVLGSADDAKKDAAKKDGQVRQSPQSLTVWEGETAILNCSYENSAFDYFPWYQQFPGEGPALLISILSVSDKKEDGRFTIFFNKREKKLSLHIADSQPGDSATYFCAAIDTNAYKVIFGKGTHLHVLP”, the “soluble on expression in E. coli” value was “soluble”. For “MAYFIDRRLNGKNKSTVNRQRFLRRYKSQIKQSISEAINKRSVTDIESGESVSIPNADINEPMFHQGRGGHRHRVHPGNDHFVQNDKIERPQGGGGSGSGQGDASKDGEGDDEFVFQISKDEYLDLLFEDLALPNLKKTQHRQMTEYKMHRAGYTANGVPANISVVRSLQNSLARRMAMTAGKRRTLHELEESLEQLAYTEPAQLLEEERLREDIAELRKKIARVPFIDTFDLRYKNYERRAEPSSQAVMFCLMDVSGSMDQATKDMAKRFYILLYLFLSRNYKNVDVVYIRHHTQAKEVDEQEFFYSQETGGTIVSSALKLMEEVVRERYDPSQWNIYAAQASDGDNWADDSPLCHQILASKLLPMVRYYSYIEITRRSHQTLWREYETLRDTFDNFAMQHIRDQDDIYPVFRELFRKQTVGHLEHHHHHH”, the “soluble on expression in E. coli” value was “not soluble”. With “MAYRDQPLGELALSIPRASALFRKYDMDYCCGGKQTLARAAARKELDVEVIEAELAKLAEQPIEKDWRSAPLAEIIDHIIVRYHDRHREQLPELILQATKVERVHADKPSVPKGLTKYLTMLHEELSSHMMKEEQILFPMIKQGMGSQAMGPISVMESEHDEAGELLEVIKHTTNNVTPPPEACTTWKAMYNGINELIDDLMDHISLENNVLFPRALAGE” the “soluble on expression in E. coli” value was “not soluble”. For “MAYRDRGMQKWQGMILSEHTEQLEQAKRKLSWLPQQSEECLVEILSYAVTKQHAITIQRLTEDENGYPLPFVVGRIVGVEDDRIYMRDMAGEITVLTFDDINHISEGTIEKWYR”, the “soluble on expression in E. coli” value was “not soluble”.
